Laboratory results published in patent US20260226168A1 (published 2026).
Numbering of substitutions follows the chain as printed.

T1: human GPRC5D protein (UniProt Q9NZD1 1-345)
T1 chain: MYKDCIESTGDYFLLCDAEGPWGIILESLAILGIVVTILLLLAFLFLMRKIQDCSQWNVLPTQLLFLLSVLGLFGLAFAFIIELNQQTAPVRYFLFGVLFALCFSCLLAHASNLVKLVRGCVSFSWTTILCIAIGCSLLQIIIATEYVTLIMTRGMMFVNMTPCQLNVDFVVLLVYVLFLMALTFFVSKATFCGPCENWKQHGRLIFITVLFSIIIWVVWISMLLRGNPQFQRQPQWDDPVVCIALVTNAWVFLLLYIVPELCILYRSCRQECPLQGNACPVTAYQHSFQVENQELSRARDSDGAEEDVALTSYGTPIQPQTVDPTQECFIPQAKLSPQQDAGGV

B1: Chi-105 (antibody, V domains shown)
VH: EVQLQQSGPELVKPGASVKMSCKASGYTFTDYYMNWVKQSHGKSLEWIGYIYPNNGGTGYNQRFKGKATLTADKSSSTAYMELRSLTSEDSAVYYCARWGGTRLGYYAMDYWGQGTSVTVSS
VL: DIVMTQSQKFMSTSVGDRVSVTCKASQNVGTNVVWYQQKPGQSPKLLIYWASTRHTGVPDRFTGSGSGTDFTLTISNVQSEDLADYFCQQYSRYPYTFGGGTKLEIKR
B2: Chi-89 (antibody, V domains shown)
VH: EVQLVESGGDLVKPGGSLKLSCAASGFTFSSYGMSWVRQTPDKRLEWVATISSGGSYTYYPDSVKGRFTFSRDNAKNTLYLQMSSLKSEDTAMYYCVRQALRYHMDSWGQGTSVTVSS
VL: B1 VL with V34A, L46A, W50S, T53Y, H55Y, T56S, Y86F, S92Y, R93S, Y96W
B3: Chi-128 (antibody, V domains shown)
VH: DVQLVESGGGLVQPGGSRKVSCAASGFTFSSFGMHWVRQAPEKGLEWVAYISRGSSTIYYADTVKGRFTISRDNPKNTLFLQMTSLRSEDTAMYYCARSGYGSSSYYFDYWGQGTTLTVSS
VL: ENVLTQSPAIMSASPREKVTMTCRASSSIRSSYLHWYQQKSGASPKLWIYSTSNLASGVPARFSGSGSGTSYSLTISSVEAEDAATYYCQQFSGYPLTFGGGTKLEIKR
B4: Chi-169 (antibody, V domains shown)
VH: EVKLVESGGGLVKPGASLKLSCAASGFTFSNYGMSWVRQTSDKRLEWVASISSGGGRIYYPDNVKGRFTISRENAKNTLYLQMSSLKSEDTALYYCTRHAMDNWGQGTSVIVSS
VL: QIVLTQSPAIMSASPGEKVTMTCSASSSVSNMYWYQQKSGTSPKRWIYDTSKLASGVPARFSGSGSGTSYSLTISSMEAEDASTYYCQQWSSNPLTFGAGTTLELKR
B5: Chi-131 (antibody, V domains shown)
VH: EVQLQQSGPELVKPGASVKMSCKASGYTFTNYVMHWVKQKPGQGLEWIGYFNPYNDGTNYNEKFKGKATLTSDKSSNTAYMELSSLTSEDSAVYYCARGGVRRYFDVWGAGTTVTVSS
VL: DIQMTQSPSSLSASLGERVSLTCRASQDIGSNLNWLQLGPDGTIKRLIYATFSLDSGVPKRFSGSRSGSDYSLTISSLESEDFVDYYCQQYANFPPTFGGGTKLEIKR

Molecular target: T1, human GPRC5D protein
Assay: FACS, cells with high expression of hGPRC5D

| Binder | EC50 |
| --- | --- |
| B1 | 1.44 nM |
| B2 | 0.7 nM |
| B3 | 0.76 nM |
| B4 | 0.66 nM |
| B5 | 0.66 nM |
